Results published in the supplement of paper PMC9170038.

Tested on: MS2 coat protein
Test: apparent KD of MS2 coat protein; higher = weaker reporter binding
Conditions: Eterna round: R107
Outline: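 Designed RNA switches, transcribed on-chip from Illumina sequencing clusters, were titrated with SNAP-549-labelled MS2 coat protein from 0.7 or 1.5 nM to 3 µM in twofold steps. The solution was 100 mM Tris-HCl pH 7.5, 80 mM KCl, 4 mM MgCl2, with constant ligand or without it. Apparent KD is the median over each design's normalised cluster binding-curve fits.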

[1] = input ligand: theophylline 20 uM
[2] = input ligand: theophylline 2 mM
[3] = input ligand: tryptophan 2.4 mM

Sequence	apparent KD of MS2 coat protein (input ligand: arginine 13.2 mM) [nM]	apparent KD of MS2 coat protein (input ligand: none) [nM]	apparent KD of MS2 coat protein [1] [nM]	apparent KD of MS2 coat protein [2] [nM]	apparent KD of MS2 coat protein [3] [nM]
GUACAUGAGGAUCACCCAUGUAUAGUUGAAGGAGCGACCGGUGGGUCAGGUAGGUCGCAGCGCAUGGCGUCAACCCGUGUAUGCC [#1 Exclusion - Arginine A Attempt #27 (Inspired by Pi)]	13.8	17.2	24.8	21	17.9
GUUAUGGACCUGGAUACCAGCUGGUACGAGGGCGGUCUACAUGAGGAUCACCCAUGUGUCAGCCCUUGGCAGCCAGCAACCCGCU [Raquleer]	10	9.39	12.6	11.9	9.92
GUUGGAUGCUCGGCCGCCACUGAGAGAGUCAUGUGAACAUGAGGAUCACCCAUGUAAUAUAUAUACAGGACCGGGAGUGUUGUAA [4.J]	19.7	19.5	50.6	25	13.3
GUUGGUUUGCGAAGGAGCGGGUAUGUUGUCUACUUGAUCCUAACAUGAGGAUCACCCAUGUCCCAGGUAGGUCGCGCGGGCUUUG [12.aC]	37	45.1	63.9	81	46.8
GUUGGUUUGGGAAGGAGCGGGUAUGUUGUCUACUUGAUCCUAACAUGAGGAUCACCCAUGUCCCAGGUAGGUCGCCCAAGCUUUG [12.aE]	69.8	161	152	316	186
GUUUUAUCAAAAGAUGAAACAGUGGGUGAACGAGGACCGGUACGGCCGCCACUCGGACAUGAGGAUCACCCAUGUCCAUGUGAAA [AstrosExyTryA#13]	15.4	18.4	17.1	21.1	54.1
GUUUUGGGAUCGGCCGCCACUACAUGAGGAUCACCCAUGUGGACAAAUAGGGUUUUUAAGCUCGGUAGGACCGGGAUUCGAACAU [Abeis]	15.4	–	19	17.5	–
UAAACUACACAUGAGGAUCACCCAUGUGGCCGAGGACCGGUACGGCCGCCACUCGUGUGUUAAUAAAAGAACUGCAAAGUUCCUU [Aquen]	63.1	–	416	504	–
UAACAUGAGGAUCACCCAUGUAUACUAAGUCGAGGACCGGUACGGCCGCCACUCGAAAUUGAAGAAUUGGCGGUAAAUGUAAGUA [JR_ExcTryptoA_Sub019]	12.6	–	15.9	14.3	–
UAACAUGAGGAUCACCCAUGUAUACUUAGUCGAGGACCGGUACGGCCGCCACUCGUACUUCAAGAUUUGGCGGAAAAUGUAUGUA [JR_ExcTryptoA_Sub021]	14.2	–	15.6	12.5	–
UAAUGCAGGUCGGCCGCCACUACAAACAUGAGGAUCACCCAUGUAGUUACUGGGUGAAGUGGCAGUAGGACCGGGACCUGCAUAA [Trp-Ms2-T'-M'-T''_Design1]	102	–	602	1040	–
UAAUUCACUAUUCACGGUCCGAUGUUCGAUACCAGAUCAUUUCGAAUCCCUUGGCAGCGAUUAACAUGAGGAUCACCCAUGUAAC [theeternabot_exclusion_MS2_Theo_A_35]	28.4	–	40.6	–	38.6
UACACAUGACAUGAUACCAGCCCAUGUGAACAUGAGGAUCACCCAUGUAUGAGGACAUGAGGCCCUUGGCAGCAUGUAUACAUGA [Same State Theophylline B 2]	11.6	–	12.7	–	11.4
UACAUGAGGAUCACCCAUGUAUGAAGGGAUACCAGCGACAGUAAGCGCCCUUGGCAGCCCGUGAAUAAAGGGUGGGUAAAAUAGU [Exclusion Theophyline A GF 3]	26.9	21.4	30.9	39.4	16.1
UACUUGCUGACGGCCGCCACUAGAACAUGAGGAUCACCCAUGUACCCGGUCCUAAUCCUCAUGACUAGGACCGGGUCAGCAAGAU [(Trp1)-(Ms2)-(T)'-(M)'-(Trp2)_Design2]	26.4	–	42.1	35.5	–
UACUUGCUGACGGCCGCCACUAGAACAUGAGGAUCACCCAUGUACCCGGUCCUACAUGGGAUGACUAGGACCGGGUCAGCAAGAU [(Trp1)-(Ms2)-(T)'-(M)'-(Trp2)_Design3]	39.6	–	72.4	68.5	–
UAGUUGUAGUCGGCCGCCACUGUGAGCAUGGUUAACAUGAGGAUCACCCAUGUCCCGUACUAUAACAGGACCGGGACGUAGUUGC [#10 Same State - Tryptophan B]	31.1	–	79.4	134	–
UAUACAUGAGGAUCACCCAUGUGCCAUGAUACCAGACAUGAAAAUGUCCCUUGGCAGCAUGGGAGAUGUAUAGCGGGAAACCCGA [Turany]	22.4	38.9	198	677	42.6
UAUACAUGGGAUACCAUGGAUCCGAGUGAUACCAGCUAUCCGAAUAGCCCUUGGCAGCACAGUACAUGAGGAUCACCCAUGUAUA [Theo A SS t5]	27.8	–	30.2	–	18.6
UAUAUAUAACAUGAGGAUCACCCAUGUAAACGAGGACCGGUACGGCCGCCACUCGGCCGGCAAGGGAGAGGACGGGAAACCGUCG [ETA NP+V+V2 #26]	12.1	12.8	23.1	23	24.4
